Results on three molecules are retold here after article PMC9663175, “Cryo-EM structures reveal the activation and substrate recognition mechanism of human enteropeptidase” (Nature Communications, 2022).

Numbering of substitutions follows the chain as printed. Names and notes keep the numbering of the source.

Sequences and labels used below:
T1: hEP heavy chain (residues 182-784 of human enteropeptidase, after trypsin activation) (human, UniProt P98073 182-784, N-linked glycans)
T1 construct: human enteropeptidase heavy chain of the 182-1019 construct (LDLR, CUB, MAM, CUB2, LDLR2, SRCR domains); C-terminal limit 784 follows from Ile785 as the new N-terminus of the light chain; Stays linked to the light chain by the disulfide Cys772-Cys896; source: HEK293F, transfected, secreted, purified from supernatant (Ni-NTA) as the 182-1019 zymogen, then cleaved with trypsin
T1 sequence (looked up): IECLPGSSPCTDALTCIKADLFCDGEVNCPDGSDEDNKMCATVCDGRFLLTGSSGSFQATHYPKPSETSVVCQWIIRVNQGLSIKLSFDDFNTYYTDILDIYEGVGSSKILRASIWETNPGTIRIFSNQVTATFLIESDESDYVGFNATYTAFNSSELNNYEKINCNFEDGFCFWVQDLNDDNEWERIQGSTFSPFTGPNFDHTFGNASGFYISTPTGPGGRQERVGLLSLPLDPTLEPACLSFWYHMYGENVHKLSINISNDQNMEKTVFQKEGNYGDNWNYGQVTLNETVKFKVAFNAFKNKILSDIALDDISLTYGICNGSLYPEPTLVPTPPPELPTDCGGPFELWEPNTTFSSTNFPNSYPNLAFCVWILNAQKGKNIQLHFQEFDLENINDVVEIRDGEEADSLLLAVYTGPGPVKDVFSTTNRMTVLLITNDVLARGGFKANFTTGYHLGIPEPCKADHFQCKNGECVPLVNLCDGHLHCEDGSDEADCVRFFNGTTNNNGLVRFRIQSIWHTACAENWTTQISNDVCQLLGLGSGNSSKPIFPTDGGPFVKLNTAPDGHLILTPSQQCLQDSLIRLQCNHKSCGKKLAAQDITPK

B1: hEP light chain (peptidase domain, residues 785-1019), wild type (domain or fragment, human, UniProt P98073 785-1019, looked up)
chain: IVGGSNAKEGAWPWVVGLYYGGRLLCGASLVSSDWLVSAAHCVYGRNLEPSKWTAILGLHMKSNLTSPQTVPRLIDEIVINPHYNRRRKDNDIAMMHLEFKVNYTDYIQPICLPEENQVFPPGRNCSIAGWGTVVYQGTTANILQEADVPLLSNERCQQQMPEYNITENMICAGYEEGGIDSCQGDSGGPLMCQENNRWFLAGVTSFGYKCALPNRPGVYARVSRFTEWIQSFLH
modifications: N-linked glycans
notes: human enteropeptidase light chain, N-terminus Ile785 (IVGG) after trypsin cleavage; Stays linked to the heavy chain by the disulfide Cys772-Cys896; source: HEK293F, transfected, secreted, purified from supernatant (Ni-NTA) as the 182-1019 zymogen, then cleaved with trypsin
B2: hEP light chain (residues 785-1019) inhibited by nafamostat (domain or fragment, human, UniProt P98073 785-1019, looked up)
chain: B1 chain
modifications: Ser971 covalently bound to the reaction product of nafamostat; N-linked glycans
notes: human enteropeptidase light chain, N-terminus Ile785 after trypsin cleavage; Stays linked to the heavy chain by the disulfide Cys772-Cys896
B3: hEP^mut light chain (peptidase domain, residues 785-1019, H825A, D876A, S971A) (domain or fragment, human, UniProt P98073 785-1019, looked up)
chain: B1 chain with H41A, D92A, S187A
modifications: N-linked glycans
notes: human enteropeptidase light chain, N-terminus Ile785 after trypsin cleavage, catalytic triad mutated to Ala; The light chain of m1; also called light chain of hEP^mut

The assay addresses T1, hEP heavy chain (residues 182-784 of …). The assay can be described thus: cryo-EM structure; trypsin-activated two-chain hEP (residues 182-1019), heavy and light chains linked by a disulfide; wild type, catalytic-triad mutant, or wild type incubated with nafamostat. The note with it: both partners purified.
On to B1, for which the binding result is given as “binds”.
To B2 belongs “binds”.
To B3 belongs “binds”.
